Patent publication US20250073239A1, “COMBINATION OF AN IMMUNOCYTOKINE COMPRISING IL-12 AND A KINASE INHIBITOR” (PHILOGEN S.P.A., priority 2022, published 2025)

Key:
[1] = rodents, cited from earlier work
[2] = humans, patients with cancer; cited from earlier work
[3] = test system: MC-38 cells, derived from C57BL/6 murine colon adenocarcinoma cells; test: Therapy experiments: tumour volume in MC-38 tumor-bearing mice; format: in vivo, C57BL/6 mice; settings: on day 8, 11 and 14
Protocol: MC-38 cells, derived from C57BL/6 murine colon adenocarcinoma cells were cultured in DMEM medium supplemented with Fetal Bovine Serum (10%) and antibiotic-antimycotic (1%) following the supplier's protocol and kept in culture for no longer than 10 passages with a confluence lower than 90%. Eight-week-old female C57BL/6 mice were used for the experiment.
MC-38 cells were grown to 80% confluence and detached with Trypsin-EDTA 0.05%. Cells were washed, counted and re-suspended in HBSS to a final concentration of 1×10^7 cells ml^−1. Aliquots of 1×10^6 cells (100 μl of the suspension) were injected subcutaneously in the right flank of each animal. Tumor volume was determined with the following formula: (length×width^2×0.5) measured with a caliper.
Preparation of the tumor cells and tumor implantation have been done as described above in chapters 2.1 and 2.2.

[4] = Toxicity monitored by daily body weighing of MC-38 tumor-bearing mice; settings: for weight loss: alone or with Ruxolitinib 75 mg/kg s.c., day 8, 11, 14
Protocol: When tumors reached an average of about 50-100 mm^3, MC-38 tumor-bearing mice were randomized, and different treatments were started. Eight different groups (4/5 mice per group) received the following treatments: • (i) i.v. vehicle on day 8, 11 and 14 after tumor implantation • (ii) s.c. Ruxolitinib (75 mg/kg) on day 8, 11 and 14 after tumor implantation • (iii) i.v. L19-IL12 (0.6 mg/kg) on day 8, 11 and 14 after tumor implantation • (iv) i.v. L19-IL12 (0.9 mg/kg) on day 8, 11 and 14 after tumor implantation • (v) i.v. L19-IL12 (1.2 mg/kg) on day 8, 11 and 14 after tumor implantation • (vi) s.c Ruxolitinib (75 mg/kg) and i.v. L19-IL12 (0.6 mg/kg) on day 8, 11 and 14 after tumor implantation • (vii) s.c. Ruxolitinib (75 mg/kg) and i.v. L19-IL12 (0.9 mg/kg) on day 8, 11 and 14 after tumor implantation • (viii) s.c. Ruxolitinib (75 mg/kg) and i.v. L19-IL12 (1.2 mg/kg) on day 8, 11 and 14 after tumor implantation
Ruxolitinib was always administered 10 minutes prior the subsequent administration of L19-IL12 at the three different dose levels.
Toxicity of the different treatments was monitored by daily body weighing and general appearance of the animals.

N#CC[C@H](C1CCCC1)n1cc(-c2ncnc3[nH]ccc23)cn1 [Ruxolitinib]
blood half-life ([1]; after injection): less than 1 hour | time to complete wash-out from blood [1]: ≤ 24 h

recombinant human IL-12: recombinant human interleukin-12 cytokine tested in clinical trials in patients with cancer
maximal tolerated dose [2]: 0.5 μg/kg of body weight

B1: L19-IL12: fusion protein of the anti-EDB L19 antibody in single chain diabody format fused to single-chain murine IL-12 (SEQ ID NO 19) (protein)
chain: MWELEKDVYVVEVDWTPDAPGETVNLTCDTPEEDDITWTSDQRHGVIGSGKTLTITVKEFLDAGQYTCHKGGETLSHSHLLLHKKENGIWSTEILKNFKNKTFLKCEAPNYSGRFTCSWLVQRNMDLKFNIKSSSSSPDSRAVTCGMASLSAEKVTLDQRDYEKYSVSCQEDVTCPTAEETLPIELALEARQQNKYENYSTSFFIRDIIKPDPPKNLQMRPLKNSQVEVSWEYPDSWSTPHSYFSLKFFVRIQRKKEKMKETEEGCNQKGAFLVERTSTEVQCKGGNVCVQAQDRYYNSSCSKWACVPCRVRSGGGGSGGGGSGGGGSRVIPVSGPARCLSQSRNLLKTTDDMVKTAREKLKHYSCTAEDIDHEDITRDQTSTLKTCLPLELHKNESCLATRETSSTTRGSCLPPQKTSLMMTLCLGSIYEDLKMYQTEFQAINAALQNHNHQQIILDKGMLVAIDELMQSLNHNGETLRQKPPVGEADPYRVKMKLCILLHAFSTRVVTINRVMGYLSSAGSADGEVQLLESGGGLVQPGGSLRLSCAASGFTFSSFSMSWVRQAPGKGLEWVSSISGSSGTTYYADSVKGRFTISRDNSKNTLYLQMNSLRAEDTAVYYCAKPFPYFDYWGQGTLVTVSSGSSGGEIVLTQSPGTLSLSPGERATLSCRASQSVSSSFLAWYQQKPGQAPRLLIYYASSRATGIPDRFSGSGSGTDFTLTISRLEPEDFAVYYCQQTGRIPPTFGQGTKVEIKSSSSGSSSSGSSSSGEVQLLESGGGLVQPGGSLRLSCAASGFTFSSFSMSWVRQAPGKGLEWVSSISGSSGTTYYADSVKGRFTISRDNSKNTLYLQMNSLRAEDTAVYYCAKPFPYFDYWGQGTLVTVSSGSSGGEIVLTQSPGTLSLSPGERATLSCRASQSVSSSFLAWYQQKPGQAPRLLIYYASSRATGIPDRFSGSGSGTDFTLTISRLEPEDFAVYYCQQTGRIPPTFGQGTKVEIK
modifications: immunocytokine sequence
tumor growth (antitumor activity) ([3]; L19-IL12 0.6, 0.9 or […] i.v., alone or with Ruxolitinib 75 mg/kg s.c. 10 min before): effectively prevented tumor growth | tumor growth (antitumor activity) ([3]; high dose L19-IL12 2.4 or 3 mg/kg i.v., alone or with Ruxolitinib 75 mg/kg s.c.): effectively prevented tumor growth | weight loss ([4]; L19-IL12 0.6 mg/kg i.v.): caused a weight loss | weight loss ([4]; L19-IL12 0.9 mg/kg i.v.): more severe toxicity | weight loss ([4]; L19-IL12 […] i.v.): more severe toxicity | weight loss ([4]; high dose L19-IL12 2.4 or 3 mg/kg i.v.): > 15% | outcome of the weight loss for the animals ([4]; high dose L19-IL12 2.4 or 3 mg/kg monotherapy): sacrifice of the mice for ethical reasons
